Publication PMC10227063 (Communications Biology, 2023)

Experiments:
YfkE = biological target: T1, YfkE (Bacillus subtilis, UniProt O34840); assay: biochemical
T1 construct: gene chaA

[1] = substrate: O=P(O)(O)O; assay: cells, lysate or membranes; conditions: outward H+ gradient by NADH, room temperature, labelled compound
[2] = co-substrate Ca2+, 5x more vesicles than WT
[3] = co-substrate Ca2+, residue printed R3 in table but R4 in text

Row | Molecule | Km [1, 2] | Vmax [1, 2] | also measured
1 | O=P(O)(O)O [inorganic phosphate] | – | – | Kd (YfkE): 930 ± 360 µM
2 | YfkE (Bacillus subtilis subsp. subtilis str. 168) (protein) MNRIFFILVAAGVPLSVIGSLMHWPSAVLFAVYCVTIIALASYMGRATESLSIIAGPRIGGLLNATFGNAVELIISLFALKEGLTGIVLASLTGSVLGNLLLVAGLSFFVGGLKYKRQEFNIHDARHNSGLLIFAIIVAFVIPEVFSVGMGNASKLNLSIGISIIMILLYVAALYFKLVTHRGVYQPNNAAQTEEEEEPEWSGKVATIVLFAATIVVAYISENLVHTFHSVAEQFGWSELFIGVIIVAIVGNAAEHASAIIMAFKNKMDIAVEIAVGSTLQIAMFVAPVLVICSIFFPTSMPLVFTLPELVAMVSAVLLMIAISNDGDSNWFEGATLLAAYVIMAIGFFLL | – | – | Km ([1]; co-substrate Ca2+ 0.1 mM): 4.9 mM
3 | YfkE (Bacillus subtilis subsp. subtilis str. 168; H256A) (protein) MNRIFFILVAAGVPLSVIGSLMHWPSAVLFAVYCVTIIALASYMGRATESLSIIAGPRIGGLLNATFGNAVELIISLFALKEGLTGIVLASLTGSVLGNLLLVAGLSFFVGGLKYKRQEFNIHDARHNSGLLIFAIIVAFVIPEVFSVGMGNASKLNLSIGISIIMILLYVAALYFKLVTHRGVYQPNNAAQTEEEEEPEWSGKVATIVLFAATIVVAYISENLVHTFHSVAEQFGWSELFIGVIIVAIVGNAAEAASAIIMAFKNKMDIAVEIAVGSTLQIAMFVAPVLVICSIFFPTSMPLVFTLPELVAMVSAVLLMIAISNDGDSNWFEGATLLAAYVIMAIGFFLL | 34.2 mM | 5.1e-05 µmol/min/mg | –
4 | YfkE (Bacillus subtilis subsp. subtilis str. 168; N99A) (protein) MNRIFFILVAAGVPLSVIGSLMHWPSAVLFAVYCVTIIALASYMGRATESLSIIAGPRIGGLLNATFGNAVELIISLFALKEGLTGIVLASLTGSVLGALLLVAGLSFFVGGLKYKRQEFNIHDARHNSGLLIFAIIVAFVIPEVFSVGMGNASKLNLSIGISIIMILLYVAALYFKLVTHRGVYQPNNAAQTEEEEEPEWSGKVATIVLFAATIVVAYISENLVHTFHSVAEQFGWSELFIGVIIVAIVGNAAEHASAIIMAFKNKMDIAVEIAVGSTLQIAMFVAPVLVICSIFFPTSMPLVFTLPELVAMVSAVLLMIAISNDGDSNWFEGATLLAAYVIMAIGFFLL | 12.4 mM | 3.9e-05 µmol/min/mg | –
5 | YfkE (Bacillus subtilis subsp. subtilis str. 168; N252A) (protein) MNRIFFILVAAGVPLSVIGSLMHWPSAVLFAVYCVTIIALASYMGRATESLSIIAGPRIGGLLNATFGNAVELIISLFALKEGLTGIVLASLTGSVLGNLLLVAGLSFFVGGLKYKRQEFNIHDARHNSGLLIFAIIVAFVIPEVFSVGMGNASKLNLSIGISIIMILLYVAALYFKLVTHRGVYQPNNAAQTEEEEEPEWSGKVATIVLFAATIVVAYISENLVHTFHSVAEQFGWSELFIGVIIVAIVGAAAEHASAIIMAFKNKMDIAVEIAVGSTLQIAMFVAPVLVICSIFFPTSMPLVFTLPELVAMVSAVLLMIAISNDGDSNWFEGATLLAAYVIMAIGFFLL | 8.2 mM | 1.9e-05 µmol/min/mg | –
6 | YfkE (Bacillus subtilis subsp. subtilis str. 168; R3A) (protein) MNAIFFILVAAGVPLSVIGSLMHWPSAVLFAVYCVTIIALASYMGRATESLSIIAGPRIGGLLNATFGNAVELIISLFALKEGLTGIVLASLTGSVLGNLLLVAGLSFFVGGLKYKRQEFNIHDARHNSGLLIFAIIVAFVIPEVFSVGMGNASKLNLSIGISIIMILLYVAALYFKLVTHRGVYQPNNAAQTEEEEEPEWSGKVATIVLFAATIVVAYISENLVHTFHSVAEQFGWSELFIGVIIVAIVGNAAEHASAIIMAFKNKMDIAVEIAVGSTLQIAMFVAPVLVICSIFFPTSMPLVFTLPELVAMVSAVLLMIAISNDGDSNWFEGATLLAAYVIMAIGFFLL | – | – | Km [1, 3]: 5.5 mM; Vmax [1, 3]: 7.5e-05 µmol/min/mg
7 | YfkE (Bacillus subtilis subsp. subtilis str. 168; Q281A) (protein) MNRIFFILVAAGVPLSVIGSLMHWPSAVLFAVYCVTIIALASYMGRATESLSIIAGPRIGGLLNATFGNAVELIISLFALKEGLTGIVLASLTGSVLGNLLLVAGLSFFVGGLKYKRQEFNIHDARHNSGLLIFAIIVAFVIPEVFSVGMGNASKLNLSIGISIIMILLYVAALYFKLVTHRGVYQPNNAAQTEEEEEPEWSGKVATIVLFAATIVVAYISENLVHTFHSVAEQFGWSELFIGVIIVAIVGNAAEHASAIIMAFKNKMDIAVEIAVGSTLAIAMFVAPVLVICSIFFPTSMPLVFTLPELVAMVSAVLLMIAISNDGDSNWFEGATLLAAYVIMAIGFFLL | 29.9 mM | 1.9e-05 µmol/min/mg | –
